For one assay, the target named is RSV F on RSV-A2 virus (Respiratory Syncytial Virus (RSV-A2), UniProt P03420 26-574). The experiment in a line: cell-based or functional assay.
Assay [1] deals with RSV prefusion F (preF), DS-Cav1 (Respiratory Syncytial Virus, UniProt P03420 26-513). Nature of the assay: BLI, IgG on anti-human IgG sensor, 100 nM antigen, 1:1 fit.
Assay [2] has as its target RSV postfusion F (postF), F ΔFP (Respiratory Syncytial Virus, UniProt P03420 26-513). The experiment in a line: BLI, IgG on anti-human IgG sensor.
Assay [3] addresses T1, RSV postfusion F, subtype A (postF, F ΔFP trimer) (Respiratory syncytial virus subtype A, UniProt P03420 26-513).
T1 construct: also called Postfusion subtype A
The experiment in a line: BLI, IgG apparent affinity.

Assay [4] addresses T2, RSV postfusion F, subtype B (postF trimer) (Respiratory syncytial virus subtype B, UniProt P13843 26-513).
T2 construct: also called Postfusion subtype B
The experiment in a line: BLI, IgG apparent affinity.

Assay [5] deals with RSV prefusion F, subtype A (preF, DS-Cav1 trimer) (Respiratory syncytial virus subtype A, UniProt P03420 26-513). Nature of the assay: BLI, IgG apparent affinity.
The target in assay [6] is RSV F on recombinant mKate-RSV A2 virus (Respiratory syncytial virus A2, UniProt P03420 26-574). Nature of the assay: cell-based or functional assay.
For assay [7], the target named is RSV F on recombinant mKate-RSV B 18537 virus (Respiratory syncytial virus B 18537, UniProt P13843 26-574). Nature of the assay: cell-based or functional assay.

Residue numbers refer to the chain shown, from its start.

B1: ADI-41524 (antibody, V domains shown)
VH: EVQLVESGGGLVQPGRSLRLSCTGSGFTFGDYAISWFRQAPGKGLEWVGFIRSKPYGGTTEYAASVKGTFTISRDDSKSIAYLQMNSLKTGDTAVYFCTRGIWGITMIVPWSDPWGQGTLVTVSS
VL: DIVMTQTPLSLPVTPGEPASISCRSSQSLLHSNGFNYLAWYLQKPGQSPQLLIYLNSNRASGVPDRFSGSGSGTDFTLKISRVEAEDVGVYYCMQALQTPLTFGPGTKLEIK
Turning to B1, in the assay with RSV F on RSV-A2 virus, the “Neutralization IC50 (RSV subtype A)” value was above 25 µg/mL. This molecule showed a Kd in assay [1] of 3.18 nM. The binding result in assay [2] is “no binding”.

B2: ADI-43645 (antibody, V domains shown)
VH: QVQLVQSGAEVKKPGSSVKVSCKASGGTFSSYAISWVRQAPGQGLEWMGGIIPIFGTANYAQKFQGRVTITADESTSTAYMELSSLRSEDTAVYYCARGWRGGGMTGSYYYYGMDVWGQGTTVTVSS
VL: DIQVTQTPSTLSASVGDRVTITCRASQSISSWLAWYQQKPGKAPKLLIYKASSLESGVPSRFSGSGSGTEFTLTISSLQPDDFATYYCQQHRGTFGQGTKVDIK
notes: also called Ab 826; Antibody Number 826
On to B2, for which, in the assay with RSV F on RSV-A2 virus, the “Neutralization IC50 (RSV subtype A)” value is above 25 µg/mL. The molecule further displayed a Kd in assay [1] of 8.7 nM. Besides, the binding result in assay [2] is on record as “no binding”.

B3: ADI-21068 (antibody, V domains shown)
VH: QVQLQESGPGLVKPSGTLSLTCVVSGGSIKSHNYWTWVRQPPGKGLEWVGEIYQSGRTNYNPSLNSRVTLSMDKSKNQLSLRLTSVTAADTAVYFCVGGGPFAPYYFQTWGQGTLVTVSS
VL: QSVLTQPPSVSGAPGQRVTISCTGSSSNIGAGYDVHWYQQLPGTAPKLLIYNNNNRPSGVPDRFSGSKSGTSASLAITGLQAEDEADYYCQSYDTSLSGYVFGTGTKVTVL
As to B3, the results for the Kd in assay [3], in assay [4] and in assay [5] were 15.5 nM, 7.85 nM and 0.255 nM, respectively. Also, the “Neut IC50 (ug/ml) subtype A” value in assay [6] was found to be 0.1 µg/mL.

B4: ADI-41517 (antibody, V domains shown)
VH: QVQLVQSGGGLVQPGGSLRLACAASGFTLSGYAMNWVRQAPGKGLEWVSSISGSGGSTYYADSVKGRFTTSRDNSKNTVFLHMNSLRAEDTAIYYCATVPWETGPFDHWGQGTLVTVSS
VL: B3 VL with D34A, Y51H, N52G, N53T, N54T, T95S, S96R, V108L
Regarding B4, in the assay with RSV F on RSV-A2 virus, the “Neutralization IC50 (RSV subtype A)” value amounted to 0.02 µg/mL. In assay [1], this molecule had a Kd of 0.501 nM. For the same molecule, the binding result in assay [2] was “no binding”.

B5: ADI-41521 (antibody, V domains shown)
VH: EVQLVESGGGLVQPGRSLRLSCAASGFTFDDFAMDWVRQVPGKGLEWVSGISWNGVSKDYAGSVKGRFTISRDNAKNSLYLQMNSLRAEDTALYFCAKARRDVYNWGDAFDIWGQGTMVTVSS
VL: DIRLTQSPGTLSLSPGERATLSCRASQPLNSNYLAWYRQKPGQAPRLLIFDASSRATGVPDRISGSGSGTDFTLTVSRLEPEDIAVYYCQQYASSPWTFGLGTKVEIK
Regarding B5, the “Neutralization IC50 (RSV subtype A)” value with RSV F on RSV-A2 virus is above 25 µg/mL. In addition, in assay [1], the Kd is 1.68 nM. The binding result in assay [2] was “no binding”.

B6: ADI-41523 (antibody, V domains shown)
VH: QVQLVQSGAEVKKPGESLRISCKGSGDTFSNYWIGWVRQMPGKGLEWMGIIYPGDSDTRYSPSFQGQVTFSADKSISTAYLQWSSLKASDTAMYYCVRQVGGVVVTDTDNYYYGMDVWGQGTTVTVSS
VL: DIRLTQSPSSLSASVGDRVTITCRASQSIRSYLNWYQQKPGKAPKLLIYSASSLQSGVPSRFSGSGSGTDFTLTISSLQPEDFATYYCQQSHSTPLTFGPGTKVDIK
For the molecule B6, the “Neutralization IC50 (RSV subtype A)” value with RSV F on RSV-A2 virus was above 25 µg/mL. In assay [1], this molecule yielded a Kd of 2.91 nM. Besides, in assay [2], the binding result is given as “no binding”.

B7: ADI-21070 (antibody, V domains shown)
VH: EVQLVESGGGLVQPGGSLRLSCAASGFTFSRYAMGWVRQAPGKGLEWVSTISDSGGSTFYADSVEGRFTIARDSSKNTLSLHMNSLRAEDTAIYYCAREAYSSSWYSGGWFDRWGQGTLVTVSS
VL: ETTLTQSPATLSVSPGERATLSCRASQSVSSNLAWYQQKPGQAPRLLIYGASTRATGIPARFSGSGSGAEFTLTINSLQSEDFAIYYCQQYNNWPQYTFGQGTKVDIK
With B7, the binding result in assay [3] and in assay [4] was “no binding” in each case. Also, in assay [5], the Kd stood at 5.37 nM. Also, the “Neut IC50 (ug/ml) subtype B” value in assay [7] was found to be 2.38 µg/mL.

B8: ADI-21071 (antibody, V domains shown)
VH: EVQLVESGGGVVQPGKSLRLSCAVSGFTFSDHDMHWVRQAPGKGLEWVAAIWSDRTTKYYGDFVKGRFTISRDNSKNTLYLQMNSLRAEDTAVYYCARGQIYKSGGYYLVHLDHWGQGTLVTVSS
VL: DIQVTQSPSSLSASVGDRVTITCRASQSIASYLNWYQQKPGKAPNLLIYAASNLQSEVPSRFSGSGSGTDFTLTISGLQPEDFATYYCQQSYNIRLLTFGGGTKVEIK
On to B8, for which the Kd in assay [3] turned out to be 0.216 nM; in assay [4] it was 1.38 nM; in assay [5], 1.17 nM.

B9: ADI-21084 (antibody, V domains shown)
VH: EVQLVESGAEVKKPGASVTVSCKASGYTFTSNTISWLRQAPGQGLEWLGWVSASNGNTKYAQKFQGRVTMTTDTSATTAYMEVRTLRHDDTAIYYCARDILDMGGFHFDNWGQGTLVTVSS
VL: SYVLTQPPSVSVAPGQTARITCGGNNIGNKHVHWYKQKPGQAPVLVVYDDSDRPSGIPERFSGSNSGNTATLTVSRVEAGDEADFYCQVWDNTNDHPVFGGGTKVTVL
For B9, the Kd is 17.3 nM in assay [3], 22.9 nM in assay [4] and 0.109 nM in assay [5]. Further, the “Neut IC50 (ug/ml) subtype A” value in assay [6] came out at 0.14 µg/mL. Moreover, the “Neut IC50 (ug/ml) subtype B” value in assay [7] was 0.46 µg/mL.

B10: ADI-21073 (antibody, V domains shown)
VH: EVQLVESGGGLVRPGRSLRLSCAASGFTFSMFSMNWVRQAPGKGLEWLAYIGGSGSTIDYANSVSGRFTISRDNAKNSLYLQMNSLRDEDTAVYYCARIGLQTYNSHSSSSSPARAFDVWGQGTTVTVSS
VL: DIVLTQSPSSLSASVGDRVTITCRASQSIGRFLNWYQQKPGKAPKLLIYAASSLESGVPSRFSGSGSGTQFSLTISSLQPEDFTTYYCQQSYSTPTTFGGGTKVDIK
As for B10, the Kd in assay [3] came out at 0.58 nM; in assay [4] it was 0.675 nM; in assay [5], 4.06 nM. In addition, the “Neut IC50 (ug/ml) subtype B” value in assay [7] worked out at 11.2 µg/mL.

B11: ADI-21090 (antibody, V domains shown)
VH: EVQLLESGGGLVKPGGSLRLSCAASGFTSGFTFSDFYMSWIRLTPGKGLEWISYISTHSTSTNYADSVRGRFIISRDDARNSLFLQMNSLRAEDTAVYYCAGYYYGSGSYFFDHWGQGTLVTVSS
VL: ETTLTQSPATLSVSPGERATLSCRASQSVSSNVAWYQQKPGQAPRLLIYSASSRDTGIPVRFSGSGSGTEFTLSISSLQSEDFAVYYCQQYSDWPTFGQGTKVEIK
As for B11, the Kd in assay [3] was found to be 0.176 nM; in assay [4], 0.175 nM; in assay [5], 1.17 nM.

B12: ADI-21076 (antibody, V domains shown)
VH: EVQLVESGGGLVRPGGSLRLSCAASGFTFSSYAMDWVRQAPGKGLEWVSSISASSSFISYTDSVKGRFTISRDNAKNSLFLQMDNVTAEDTAVYYCARDYYESGRYFYGNPFDIWGQGTMVTVSS
VL: QPVLTQPPSVSGAPGQRVTISCTGSGSNIGAGFDVHWYQQLPGTAPKLLIYANSDRPSGVPDRFSASKSGTSASLAITGLQAEDEAHYYCQSYDNSLGGLCVFGTGTKLTVL
With B12, the Kd in assay [3] amounted to 7.34 nM; in assay [4] it was 6.28 nM; in assay [5], 0.219 nM. Further, the “Neut IC50 (ug/ml) subtype A” value in assay [6] worked out at 0.03 µg/mL. The “Neut IC50 (ug/ml) subtype B” value in assay [7] was found to be 0.3 µg/mL.

B13: ADI-43646 (antibody, V domains shown)
VH: EMQLMQSGGVVVQPGGSLRLSCAASGFTFDDYAMHWVRQAPGKGLEWVSLISWDGGSTYYADSVKGRFTISRDNSKNSLYLQMNSLRAEDTALYYCAKDFDPLVVPAAMCFDYWGQGTLVTVSS
VL: QSVLIQPASVSGSPGQSITISCTGTSSDVGGYNYVSWYQQHPGKAPKLMIYDVSNRPSGVSNRFSGSKSGNTASLTISGLQAEDEADYYCSSYTSSSTLYVFGTGTKLTVL
B13: the “Neutralization IC50 (RSV subtype A)” value in the assay with RSV F on RSV-A2 virus was above 25 µg/mL. This molecule also came in with a Kd in assay [1] of 5.34 nM. Further, the binding result in assay [2] is reported as “no binding”.

B14: ADI-21087 (antibody, V domains shown)
VH: EVQLVESGGGLVQPGGSLRLSCAASGFTFSGYEMNWVRQAPGKGLEWLSYISSSGGIIYYADSVKGRFTISRDNARNSLFLQMNSLRAEDTAVYSCARARLLDGFDIWGQGTMVTVSS
VL: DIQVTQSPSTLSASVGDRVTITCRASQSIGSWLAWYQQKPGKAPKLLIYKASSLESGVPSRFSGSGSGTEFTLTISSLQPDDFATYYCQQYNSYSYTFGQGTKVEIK
With B14, the Kd in assay [3] turned out to be 0.545 nM; in assay [4] it was 0.476 nM. Also, in assay [5], the binding result is recorded as “no binding”.

B15: ADI-21083 (antibody, V domains shown)
VH: QVQLQESGPGLVKPSGTLSLTCAVSGDSITTSNWWSWVRQPPGKGLEWIGEIYHSGVTRYNPSLKSRLSISLDKSRNQFSLKLSSVTAADTAVYYCARDEALFGHWFDPWGQGTLVTVSS
VL: QSVLTQPRSVSGSPGQSVTISCTGSSSDIGSYNYVSWYQQHPGKAPKLMLYDVSKRPSGVPDRFSGSKSVKTASLTISGLQAEDEADYYCCTYAGNSVVFGGGTKLTVL
Regarding B15, the binding result in assay [3] and in assay [4] was “no binding” throughout. Further, the Kd in assay [5] came to 2.25 nM. Also, in assay [6], the “Neut IC50 (ug/ml) subtype A” value is 0.36 µg/mL. Also, the “Neut IC50 (ug/ml) subtype B” value in assay [7] turned out to be 0.79 µg/mL.

B16: ADI-43644 (antibody, V domains shown)
VH: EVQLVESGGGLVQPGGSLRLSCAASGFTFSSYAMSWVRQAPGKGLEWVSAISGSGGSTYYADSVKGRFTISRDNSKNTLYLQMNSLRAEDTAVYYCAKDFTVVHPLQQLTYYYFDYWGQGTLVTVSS
VL: DIVLTQSPATLSLSPGERATLSCRASQSVSSYLAWYQQKPGQAPRLLIYDASNRATGIPARFSGSGSGTDFTLTISSLEPEDFAVYYCQQRSNWPPGFTFGGGTKVEIK
As to B16, the “Neutralization IC50 (RSV subtype A)” value with RSV F on RSV-A2 virus was above 25 µg/mL. In assay [1], this molecule registered a Kd of 29.3 nM. In assay [2], the binding result is on record as “no binding”.

The values above are taken from US20260258115A1 (MAPP BIOPHARMACEUTICAL, published 2026).
